Measurements as given in PMC4445002, “Efficient inhibition of tumor angiogenesis and growth by a synthetic peptide blocking S100A4-methionine aminopeptidase 2 interaction” (Molecular Therapy. Methods & Clinical Development, 2015).

B1: ECFP-MetAP2: ECFP-tagged full-length MetAP2 expressed in HeLa cells (protein)
chain: AGVEQAASFGGHLNGDLDPDDREEGTSSTAEEAAKKKRRKKKKGKGAVSAVQQELDKESGALVDEVAKQLESQALEEKERDDDDEDGDGDADGATGKKKKKKKKKRGPKVQTDPPSVPICDLYPNGVFPKGQECEYPPTQDGRTAAWRTTSEEKKALDQASEEIWNDFREAAEAHRQVRKYVMSWIKPGMTMIEICEKLEDCSRKLIKENGLNAGLAFPTGCSLNNCAAHYTPNAGDTTVLQYDDICKIDFGTHISGRIIDCAFTVTFNPKYDILLTAVKDATNTGIKCAGIDVRLCDVGEAIQEVMESYEVEIDGKTYQVKPIRNLNGHSIGPYRIHAGKTVPIVKGGEATRMEEGEVYAIETFGSTGKGVVHDDMECSHYMKNFDVGHVPIRLPRTKHLLNVINENFGTLAFCRRWLDRLGESKYLMALKNLCDLGIVDPYPPLCDIKGSYTAQFEHTILLRPTCKEVVSRGDDY
modifications: left off: ECFP, end not stated, kept
notes: ECFP-tagged full-length MetAP2 expressed in HeLa cells
B2: MetAP2(1–169): truncated MetAP2, amino acids 1–169, control, expressed from retrovirus (protein, UniProt P50579 1-169, looked up, fragment)
chain: MAGVEEVAASGSHLNGDLDPDDREEGAASTAEEAAKKKRRKKKKSKGPSAAGEQEPDKESGASVDEVARQLERSALEDKERDEDDEDGDGDGDGATGKKKKKKKKKRGPKVQTDPPSVPICDLYPNGVFPKGQECEYPPTQDGRTAAWRTTSEEKKALDQASEEIWNDF
B3: MetAP2(1–229): truncated form of MetAP2, amino acids 1–229, expressed from retrovirus (protein, UniProt P50579 1-229, looked up, fragment)
chain: MAGVEEVAASGSHLNGDLDPDDREEGAASTAEEAAKKKRRKKKKSKGPSAAGEQEPDKESGASVDEVARQLERSALEDKERDEDDEDGDGDGDGATGKKKKKKKKKRGPKVQTDPPSVPICDLYPNGVFPKGQECEYPPTQDGRTAAWRTTSEEKKALDQASEEIWNDFREAAEAHRQVRKYVMSWIKPGMTMIEICEKLEDCSRKLIKENGLNAGLAFPTGCSLNNCA

What was measured:
[1] = system: S100A4; experiment: FRET acceptor-photobleaching analysis in live HeLa cells; format: binding; settings: ECFP fusion cotransfected with EYFP-S100A4, acceptor photobleaching, n = 8–11, **P < 0.01, ***P < 0.001
[2] = system: MSS31 cells; experiment: DNA synthesis (BrdU uptake ELISA) in retrovirally infected cells; format: cell-based, mouse; settings: retroviral overexpression, 10% FBS and 10 μmol/l BrdU for 6 hours, OD450
Method: cDNA fragments encoding amino acids 1–169 [MetAP2(1–169)] or 1–229 [MetAP2(1–229)] of MetAP2 were PCR amplified and inserted into the multicloning site (SalI/NotI site) of the pRX-puro vector (Supplementary Figure S1).
DNA synthesis was quantified by measuring bromodeoxyuridine (BrdU) incorporation using the Cell Proliferation ELISA BrdU kit (Roche Applied Science, Penzberg, Upper Bavaria, Germany). MSS31 cells cultured for 24 hours in a medium containing 0.2% serum were stimulated with a medium containing 10% FBS and 10 μmol/l BrdU for 6 hours. The cells were harvested and BrdU uptake was measured according to the manufacturer’s protocol. Briefly, the cells were fixed, denatured, and incubated with the monoclonal anti-BrdU-peroxidase antibody. The immune complexes were then detected by the subsequent reaction with tetramethyl-benzidine. The reaction product was quantified by measuring the absorbance (OD450) using a scanning multiwell spectrophotometer.

| Molecule | FRET efficiency with EYFP-S100A4 vs negative controls [1] | serum-induced DNA synthesis [2] |
| --- | --- | --- |
| B1 | significantly higher than that of the negative controls | – |
| B2 | – | but not MetAP2(1–169), resulted in a marked suppression of serum-induced DNA synthesis |
| B3 | – | resulted in a marked suppression of serum-induced DNA synthesis |
